The values that follow come from patent US20240199757A1 (UNIVERSITY OF CHICAGO, published 2024).

For experiment [1], the target named is T1, human NT5E expressed on MDA-MB-231 cells (human, UniProt P21589 27-549).
T1 construct: whole, on cells; also called NT5E-expressing MDA-MB-231 cells; CD73
T1 sequence (looked up): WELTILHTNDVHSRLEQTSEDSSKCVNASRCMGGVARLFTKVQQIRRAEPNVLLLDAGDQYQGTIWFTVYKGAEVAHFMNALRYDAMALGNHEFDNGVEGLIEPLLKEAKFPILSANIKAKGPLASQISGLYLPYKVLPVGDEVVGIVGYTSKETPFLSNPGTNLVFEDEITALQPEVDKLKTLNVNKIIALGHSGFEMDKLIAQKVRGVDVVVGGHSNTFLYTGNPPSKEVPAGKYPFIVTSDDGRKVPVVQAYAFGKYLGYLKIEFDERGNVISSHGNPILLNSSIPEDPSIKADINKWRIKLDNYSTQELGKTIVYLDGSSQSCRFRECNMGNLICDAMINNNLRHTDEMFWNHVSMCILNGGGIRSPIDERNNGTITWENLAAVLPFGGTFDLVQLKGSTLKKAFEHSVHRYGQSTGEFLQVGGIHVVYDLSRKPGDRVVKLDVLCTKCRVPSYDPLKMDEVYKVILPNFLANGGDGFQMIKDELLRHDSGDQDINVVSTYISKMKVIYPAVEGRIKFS
Put plainly: flow cytometry on MDA-MB-231 cells, PBS without ATP; -ATP (PBS alone), MDA-MB-231 cells. The protocol: Flow cytometry analysis of antibodies binding to human NT5E expressed on MDA-MB-231 cells in ATP-free condition (black) or in 1 mM ATP (red). Top panel: (left) 1780 Fab and (right) 1780 IgG titrations. […] Binding was measured at the indicated range of antibody concentrations and is expressed as mean±st. dev of median fluorescence intensity (MFI) of 1-2 replicates. Data were analyzed using OriginLab, and EC₅₀ values are shown next to the fitted curves.
Human MDA-MB-231 cells and murine 4T1 cells were grown to 90% confluency, detached with 5 mM EDTA for 15 min at 37° C. and then resuspended in 37° C. lx PBS (#10010031, Gibco) supplemented with 1% FBS and 1OpM ZnCl2. Separate working buffers (WB) of PBS and 1% FBS with or without fixed nucleotide concentrations were used throughout all washing steps to maintain constant condition. In 96-well plates (#3799, Costar), 0.2×10⁶ cells were added per well. The plates were spun at 500×g for 5 min and the supernatant was removed. Anti-NT5E antibodies were diluted to the desired concentration in 100 μL WB, added to the cells and the plates were incubated for 20 min at 37° C. Plates were spun and cells were washed twice with WB then spun a second time. […] Samples were analyzed by flow cytometry using CytoFLEX (Beckman Coulter) and mean fluorescence intensity (MFI) data was extracted using FlowJo software. […]

Experiment [2] has as its target T2, Full-length human NT5E (recombinant, in-house) (human, UniProt P21589 27-549).
T2 construct: also called hNT5E; hNT5EWT
T2 sequence: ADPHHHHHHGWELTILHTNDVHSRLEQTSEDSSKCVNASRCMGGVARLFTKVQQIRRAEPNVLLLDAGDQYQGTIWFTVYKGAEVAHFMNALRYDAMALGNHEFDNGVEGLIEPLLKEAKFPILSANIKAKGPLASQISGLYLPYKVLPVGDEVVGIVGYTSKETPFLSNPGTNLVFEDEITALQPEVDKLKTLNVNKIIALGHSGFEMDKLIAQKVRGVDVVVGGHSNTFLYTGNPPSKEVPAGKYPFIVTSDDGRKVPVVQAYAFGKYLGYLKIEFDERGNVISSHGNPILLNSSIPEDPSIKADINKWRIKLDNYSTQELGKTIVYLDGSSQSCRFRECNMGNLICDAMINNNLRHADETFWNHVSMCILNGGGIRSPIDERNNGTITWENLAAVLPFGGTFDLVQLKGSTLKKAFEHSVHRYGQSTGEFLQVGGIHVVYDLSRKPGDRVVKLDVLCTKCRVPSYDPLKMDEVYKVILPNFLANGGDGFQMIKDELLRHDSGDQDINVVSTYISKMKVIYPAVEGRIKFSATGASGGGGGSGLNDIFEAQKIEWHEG
The experiment is described as follows: ELISA, biotinylated NT5E on neutravidin plate, no cofactors (apo). The protocol:
(§1) (B) Protein ELISA: Protein-based multipoint ELISA was performed to estimate the affinity of the generated Fabs and IgGs to NT5E. The binding of the Fabs and IgGs to the closed form of NT5E were determined in ELISA buffer (HBST) supplemented with 10 μM zinc chloride and 1 mM ATP while the binding of the same to open form of NT5E were determined in ELISA buffer (HBST) without any cofactors. A fixed concentration of the immobilized target (50 nM) on ELISA plate was incubated with 3-fold serial dilutions of the purified Fabs and IgGs starting from 3 μM and 1 μM respectively for 15 min. The plates were washed and were subsequently incubated with a secondary HRP-conjugated anti-protein L monoclonal antibody (#32420, ThermoFisher, 1:6000 dilution). As with phage ELISA, the plates were again washed, developed with TMB substrate and quenched with 1.0 M HCl, and absorbance (Abs450) was determined. To determine the affinity (EC50), the data were fitted with a non-linear, 4-parameter logistic curve in OriginLab.
On the technique in general: In an ELISA, binding on a coated surface is turned into a signal by an enzyme label.

In experiment [3] the target is T3, Full-length cynomolgus NT5E (recombinant) (cynomolgus, UniProt P21589 27-549 (human entry)).
T3 construct: also called cNT5E; cyno NT5E
T3 chain: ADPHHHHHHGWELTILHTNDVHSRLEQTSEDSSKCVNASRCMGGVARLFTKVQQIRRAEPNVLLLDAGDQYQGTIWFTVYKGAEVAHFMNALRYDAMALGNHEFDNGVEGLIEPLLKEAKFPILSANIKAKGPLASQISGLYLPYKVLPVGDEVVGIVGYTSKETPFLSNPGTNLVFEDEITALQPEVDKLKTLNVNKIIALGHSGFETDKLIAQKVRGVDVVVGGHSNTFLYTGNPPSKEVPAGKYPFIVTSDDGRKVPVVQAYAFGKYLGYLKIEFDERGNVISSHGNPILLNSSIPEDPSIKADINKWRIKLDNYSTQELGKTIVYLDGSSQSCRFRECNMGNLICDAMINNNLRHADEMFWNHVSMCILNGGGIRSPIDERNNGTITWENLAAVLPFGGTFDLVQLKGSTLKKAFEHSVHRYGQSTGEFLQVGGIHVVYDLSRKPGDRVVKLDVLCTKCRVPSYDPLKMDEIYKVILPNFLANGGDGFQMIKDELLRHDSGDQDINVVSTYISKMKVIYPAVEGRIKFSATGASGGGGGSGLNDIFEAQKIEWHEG
The description is as above. The procedure: as §1

B1: 1789 IgG (antibody, V domains shown)
VH: EVQLVESGGGLVQPGGSLRLSCAASGFNVSYSSIHWVRQAPGKGLEWVASISSSSGYTYYADSVKGRFTISADTSKNTAYLQMNSLRAEDTAVYYCARNYWGWYPFYYFAFDYWGQGTLVTVSS
VL: DIQMTQSPSSLSASVGDRVTITCRASQSVSSAVAWYQQKPGKAPKLLIYSASSLYSGVPSRFSGSRSGTDFTLTISSLQPEDFATYYCQQGWDYPITFGQGTKVEIKR
For the molecule B1, the EC50 (in general, the concentration needed to bring the measured effect to its halfway point) was determined as 124 nM in experiment [1], 2.14 nM in experiment [2] and 1.04 nM in experiment [3].
